# Results published in publication doi:10.1101/2021.09.17.460839, “Structural and functional characterization of Rv0792c from Mycobacterium tuberculosis: identifying small molecule inhibitors against GntR protein” (bioRxiv, 2021).
# B1: (His)6-Rv0792c, wild type, GntR family (HutC subfamily) transcription factor from M. tuberculosis (natural protein)
# chain: MTSVKLDLDAADLRISRGSVPASTQLAEALKAQIIQQRLPRGGRLPSERELIDRSGLSRVTVRAAVGMLQRQGWLVRRQGLGTFVADPVEQELSCGVRTITEVLLSCGVTPQVDVLSHQTGPAPQRISETLGLVEVLCIRRRIRTGDQPLALVTAYLPPGVGPAVEPLLSGSADTETTYAMWERRLGVRIAQATHEIHAAGASPDVADALGLAVGSPVLVVDRTSYTNDGKPLEVVVFHHRPERYQFSVTLPRTLPGSGAGIIEKRDFA
# notes: not shown: His6, N-terminal, kept
# Molecular target: the molecule itself
# Experiment: AUC
protein,measurement,value
B1,stoichiometry N,2
